# Values joined by “and” are separate entries in the source; they are usually repeats but may differ in a detail not shown here. Identical values can stand only once. No end group written: not given here.
# T1: interaction of Bcl-2 L10/Nrh with the BD domain of the receptor IP3R1 (Homo sapiens, UniProt Q9HD36)
# T1 construct: expressed in transfected cells; host or cells: HeLa
# T1 sequence (Q9HD36 11-204): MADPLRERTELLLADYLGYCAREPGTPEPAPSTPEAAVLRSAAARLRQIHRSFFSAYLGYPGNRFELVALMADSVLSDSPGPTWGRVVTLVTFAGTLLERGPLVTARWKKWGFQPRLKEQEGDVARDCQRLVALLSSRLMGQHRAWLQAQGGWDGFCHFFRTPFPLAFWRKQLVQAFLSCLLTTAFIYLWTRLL
# T2: Flag-Nrh (Bcl-2 L10) (Homo sapiens, UniProt Q9HD36)
# T2 construct: expressed in transfected cells; host or cells: HeLa (cellular extracts)
# T2 sequence (Q9HD36 1-204): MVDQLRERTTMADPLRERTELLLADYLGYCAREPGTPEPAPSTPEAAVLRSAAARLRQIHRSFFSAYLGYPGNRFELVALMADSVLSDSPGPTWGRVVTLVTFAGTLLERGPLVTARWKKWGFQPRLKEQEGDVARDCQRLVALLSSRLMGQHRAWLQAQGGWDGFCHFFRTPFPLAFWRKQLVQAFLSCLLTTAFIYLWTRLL
# T3: interaction between the endogenous proteins Nrh and IP3R1 (Homo sapiens, UniProt Q9HD36)
# T3 construct: endogenous in cells; host or cells: MDA-MB-231
# T3 sequence (Q9HD36 11-204): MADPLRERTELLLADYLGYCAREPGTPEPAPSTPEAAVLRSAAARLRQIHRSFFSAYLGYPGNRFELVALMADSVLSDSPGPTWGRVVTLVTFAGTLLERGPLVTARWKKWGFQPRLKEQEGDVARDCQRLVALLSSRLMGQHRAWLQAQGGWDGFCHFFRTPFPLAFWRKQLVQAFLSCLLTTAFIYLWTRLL
# B1: biotin-labelled Nrh 1-23 wild-type peptide (peptide)
# peptide: MADPLRERTELLLADYLGYCARE
# modifications: also: biotin-labelled (position not given here)
# notes: 3 (same without the first methionine); also called biotin-labelled Nrh 1-23 peptide
# B2: Bcl-2 L10/Nrh-WT: the human Bcl-2 L10/Nrh protein in its wild-type, whole form, expressed from a transfected construct (protein, UniProt Q9HD36 1-204, looked up)
# chain: MVDQLRERTTMADPLRERTELLLADYLGYCAREPGTPEPAPSTPEAAVLRSAAARLRQIHRSFFSAYLGYPGNRFELVALMADSVLSDSPGPTWGRVVTLVTFAGTLLERGPLVTARWKKWGFQPRLKEQEGDVARDCQRLVALLSSRLMGQHRAWLQAQGGWDGFCHFFRTPFPLAFWRKQLVQAFLSCLLTTAFIYLWTRLL
# modifications: full-length
# notes: the human Bcl-2 L10/Nrh protein in its wild-type, whole form, expressed from a transfected construct
# Experiments:
# HeLa cells = test: Test of apoptosis (SR-FLICA, caspase activity) in transfected HeLa cells treated with thapsigargin; type: cell-based, human; details: 10 μM thapsigargin for 24 h
# Experimental: (B) Test of apoptosis (SR-FLICA) in response to 10 μM of thapsigargin for 24 h in HeLa cells transfected with the empty vector pCS2+ or the constructs coding for Nrh-WT (wild-type), Nrh-ActA, Nrh-cb5, Nrh-dTM or Nrh-dBH4 (N=3). ***, p<0.001;**, p<0.01; n.s. p>0.1 (Student t-test).
# (C) Test of apoptosis (SR-FLICA) in response to 10 μM of thapsigargin for 24 h in HeLa cells transfected with the empty vector pCS2+ or the constructs coding for the peptides Nrh 1-23, Nrh 1-23 Y16F or Nrh 1-23 C20A (N=3). ***, p<0.001;**, p<0.01; n.s. p>0.1 (Student t-test).
# The effects of these various proteins were observed after transfection of HeLa cells by the empty vector pCS2+ or with the constructs coding for Nrh, Nrh-ActA, Nrh-cb5, dTM or dBH4.
# [1] = target: T1, interaction of Bcl-2 L10/Nrh with the BD domain of the receptor IP3R1; test: Immunoprecipitation (anti-HA) of the Flag-Nrh / HA-hBD interaction in HeLa cells co-transfected with peptide plasmids; type: cell-based; details: peptides Flag-tagged, fused to cytochrome b5 domain, plasmid ratio 1:2
# Excerpt: (B) Quantification of the Nrh-IP3R1 interaction by immunoprecipitation experiments with anti-HA antibodies in HeLa cells transfected with plasmids coding for Flag-Nrh, HA-hBD and the different point mutants of the peptides Nrh 1-23 Flag-tagged with a ratio of 1:2 (N=3).
# FIG. 5B presents the ability of these different peptides to inhibit the interaction of Bcl-2 L10/Nrh with the BD domain of the receptor IP3R1. This interaction is quantified by the immunoprecipitation technique, the BD domain being tagged with an HA epitope and the protein Bcl-2 L10/Nrh being tagged with a Flag epitope.
# HeLa cells are transfected with plasmids coding for Flag-Nrh, HA-hBD and the different point mutants of the peptide Nrh 1-23 Flag-tagged with a ratio of 1:2, and immunoprecipitation is carried out with an anti-HA antibody.
# Flag-Nrh (Bcl-2 L10) = target: T2, Flag-Nrh (Bcl-2 L10); test: Streptavidin pull-down with biotin-labelled peptide, HeLa extracts expressing Flag-Nrh; type: binding; details: 5 μg of biotin-labelled peptide
# Experimental: (A) Streptavidin pull-down in HeLa cells transfected with either empty vector pCS2+, Flag-Nrh, HA-hBD or HA-BECN1, which cellular extracts were incubated or not with 5 μg of biotin-labelled Nrh 1-23 peptide.
# (B) Streptavidin pull-down in HeLa cells transfected with either empty vector pCS2+, Flag-Nrh, or Flag-Nrz, which cellular extracts were incubated with 5 μg of biotin-labelled Nrh 1-23 peptide or Nrh 1-23 R6A Y16F double mutant peptide.
# (A) HeLa cells were transfected with either empty vector pCS2+, Flag-Nrh, HA-hBD or HA-Beclin1 (referred to as HA-BECN1), a protein well known for its binding capacities to Nrh, then cellular extracts were incubated or not with 5 μg of biotin-labelled Nrh 1-23 wild-type peptide. Streptavidin is used for pulling-down the complexes comprising biotin-labelled Nrh peptide.
# Streptavidin is used for pulling-down the complexes comprising biotin-labelled Nrh peptide.
# [2] = target: T3, interaction between the endogenous proteins Nrh and IP3R1; test: Proximity ligation assay (PLA) of endogenous Nrh and IP3R1 in MDA-MB-231 cells; type: cell-based; details: for inhibition of the Nrh/IP3R1 interaction relative to the limit value: conclusion of the PLA experiment; for percentage inhibition of the Nrh/IP3R1 interaction: with 488 nm flash
# Experimental: (A) Proximity ligation assay (PLA) experiments allowing for the detection of the interaction between the endogenous proteins Nrh and IP3R1 in MDA-MB-231 cells.
# The MDA-MB-231 cells are incubated for 4 h with the peptide TAT Nrh-1-23 (SEQ ID NO. 4) or the control peptide TAT-Nrh 1-23 Y16F (SEQ ID NO 12, 14 and 6). After 3 washes of the cells, a 488 nm laser is used to excite the fluorophore (FITC) present in the endosomes, rupture the endosomal membrane and release the TAT-FITC peptides into the cytosol. The cells are incubated for 12 h then fixed, and the interaction between Nrh and IP3R1 is quantified by PLA using a rabbit anti-Nrh primary antibody and a mouse anti-IP3R1 primary antibody. This step is followed by incubation with a mixture of anti-rabbit and anti-mouse secondary antibodies, each coupled to a complementary nucleotide probe. A step of ligation then amplification is then carried out in the presence of fluorescent nucleotides, making it possible to amplify a specific signal in the case of spatial proximity of the probes. The fluorescence signal, in which each dot corresponds to an interaction in the cell, is recorded by means of a Nikon NiE fluorescence microscope. The images are quantified by the Image J software, and the interaction score is represented on the graph as number of dots per cell (N=3).
# [3] = target: endogenous protein Bcl-2 L10/Nrh (in cells) (human) (UniProt Q9HD36); test: proximity ligation assay of endogenous Nrh and IP3R1, MDA-MB-231 cells; against the vehicle control
# [4] = target: endogenous protein Bcl-2 L10/Nrh (in cells) (human) (UniProt Q9HD36); test: proximity ligation assay of endogenous Nrh and IP3R1, MDA-MB-231 cells; against the no-flash control
# [5] = target: endogenous protein Bcl-2 L10/Nrh (in cells) (human) (UniProt Q9HD36); test: cell-based or functional assay
# [6] = target: endogenous protein Bcl-2 L10/Nrh (in cells) (human) (UniProt Q9HD36); test: proximity ligation assay of endogenous Nrh and IP3R1, MDA-MB-231 cells; as a function of the negative control
# [7] = target: T4, HA-hBD (IP3 ligand binding domain of human IP3R1 tagged with an HA epitope) (human, UniProt Q14643-2 226-565, limits assumed); test: streptavidin pull-down from extracts of transfected HeLa cells
# T4 construct: Expressed in HeLa cells; also called HA-hBD IP3R1; BD domain of the receptor IP3R1
# [8] = 488 nm flash used to release the peptide
# T4 sequence (Q14643 other isoform, or with tags, fused parts or gaps limits assumed): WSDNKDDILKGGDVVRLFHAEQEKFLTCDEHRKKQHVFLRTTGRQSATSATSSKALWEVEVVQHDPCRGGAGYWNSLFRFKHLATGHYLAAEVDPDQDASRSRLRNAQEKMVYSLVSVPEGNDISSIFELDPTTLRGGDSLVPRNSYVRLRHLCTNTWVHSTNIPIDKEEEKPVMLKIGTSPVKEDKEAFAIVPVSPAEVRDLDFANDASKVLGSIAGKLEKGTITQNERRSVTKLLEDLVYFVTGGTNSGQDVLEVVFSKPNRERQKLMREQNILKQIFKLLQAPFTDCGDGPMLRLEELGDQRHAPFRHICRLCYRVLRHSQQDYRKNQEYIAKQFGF
molecule,measurement,setting,value
"C/C=C(/C)C(=O)O[C@H]1C(C)=C2[C@H]([C@@H]1OC(=O)CCCCCCC)[C@@](C)(OC(C)=O)C[C@H](OC(=O)CCC)[C@@]1(O)[C@H]2OC(=O)[C@@]1(C)O [thapsigargin, reference compound]",caspase activity,HeLa cells; HeLa control cells (empty vector pCS2+),greatly induced
"MADPLAERTELLLADYLGYCARE (Synthetic peptide Peptide R6A) [Nrh R6A, point mutant of Nrh 1-23, non-functional]",ability to inhibit the Nrh/IP3R1 BD interaction (Flag-Nrh band on Western blot after anti-HA immunoprecipitation),[1],"still visible, albeit faintly"
"MADPLRERTELLLAAYLGYCARE (Synthetic peptide D15A) [Nrh D15A, point mutant of Nrh 1-23, functional]",ability to inhibit the Nrh/IP3R1 BD interaction (Flag-Nrh band on Western blot after anti-HA immunoprecipitation),[1],dissociate the Nrh/IP3R1 interaction
"MADPLRERTELLLADFLGYCARE (Synthetic peptide Y16F) [Nrh Y16F, point mutant of Nrh 1-23, non-functional]",ability to inhibit the Nrh/IP3R1 BD interaction (Flag-Nrh band on Western blot after anti-HA immunoprecipitation),[1],"still visible, albeit faintly"
"MADPLRERTELLLADYLGYAARE (Synthetic peptide C20A) [Nrh C20A, point mutant of Nrh 1-23, functional]",ability to inhibit the Nrh/IP3R1 BD interaction (Flag-Nrh band on Western blot after anti-HA immunoprecipitation),[1],dissociate the Nrh/IP3R1 interaction
same,potentiation of thapsigargin effect on caspase activity,HeLa cells; HeLa cells transfected with peptide construct (fused to Cb5),this effect is maintained
Nrh 1-23 R6A Y16F: biotin-labelled Nrh 1-23 R6A Y16F double mutant peptide (MADPLAERTELLLADFLGYCARE; also: biotin-labelled (position not given here)),interaction with Nrh (pull-down),Flag-Nrh (Bcl-2 L10),reduced interaction with Nrh
RKKRRQRRRGGSGGADPLRERTELLLADYLGYCARE [TAT Nrh 1-23],PLA interaction score Nrh/IP3R1,[2]; [8],11±1 dots per cell
same,inhibition of the Nrh/IP3R1 interaction relative to the limit value,[2],at least 30%
same,PLA interaction score Nrh/IP3R1,[2]; in the absence of 488 nm flash (no release of the peptides into the cytosol),87±6 dots per cell
same,percentage inhibition of the Nrh/IP3R1 interaction,[2]; negative control = TAT Nrh 1-23 without flash (87 dots per cell),87%
same,percentage inhibition of the Nrh/IP3R1 interaction,[2]; negative control = vehicle (80 dots per cell),86%
"TAT Nrh Y16F: combination of TAT (SEQ ID NO. 12), a spacer (SEQ ID NO. 14) and SEQ ID NO. 6 without the methionine; control outside the invention (RKKRRQRRRGGSGGADPLRERTELLLADFLGYCARE)",PLA interaction score Nrh/IP3R1,[2]; [8],65±5 dots per cell
same,inhibition of the Nrh/IP3R1 interaction relative to the limit value,[2],< 30%
"control peptide TAT-Nrh 1-23 Y16F, FITC-coupled",percentage inhibition of the Nrh/IP3R1 interaction,[3],18.8%
same,percentage inhibition of the Nrh/IP3R1 interaction,[4],25%
"peptide Nrh 1-23 fused at the C-terminal end with the cytochrome b5 targeting domain, Flag-tagged","caspase activity (SR-FLICA apoptosis test), HeLa cells, 10 µM thapsigargin for 24 h",[5],2 fold
"peptide TAT-Nrh 1-23 (TAT-spacer-domain of binding to IP3Rs without methionine), FITC-coupled",percentage inhibition of the Nrh/IP3R1 interaction,[6],86% and 87%
B1,binding result,[7],no binding (tested: 5 µg of biotin-labelled peptide)
B2,effect on thapsigargin-induced caspase activity (apoptosis-blocking effect),HeLa cells; HeLa cells overexpressing Nrh construct,reduced by half
